Measured values taken from ChEMBL document CHEMBL1122575, “Dependence of beta-lactamase stability on substructures within beta-lactam antibiotics” (J Med Chem, 1984).

Columns and labels:
[1] = substrate: CC1(C)SC2[C@H](NC(=O)c3ccccc3)C(=O)N2C1C(=O)O; assay: (§1) Stability against beta-lactamase of Staphylococcus aureus
[2] = substrate: CC1(C)S[C@@H]2[C@H](NC(=O)Cc3ccccc3)C(=O)N2[C@H]1C(=O)O; assay: as §1
[3] = substrate: COc1cccc(OC)c1C(=O)N[C@@H]1C(=O)N2C1SC(C)(C)C2C(=O)O; assay: as §1

B1: Beta-lactamase (Staphylococcus aureus), P00807 (protein)
chain: MKKLIFLIVIALVLSACNSNSSHAKELNDLEKKYNAHIGVYALDTKSGKEVKFNSDKRFAYASTSKAINSAILLEQVPYNKLNKKVHINKDDIVAYSPILEKYVGKDITLKALIEASMTYSDNTANNKIIKEIGGIKKVKQRLKELGDKVTNPVRYEIELNYYSPKSKKDTSTPAAFGKTLNKLIANGKLSKENKKFLLDLMLNNKSGDTLIKDGVPKDYKVADKSGQAITYASRNDVAFVYPKGQSEPIVLVIFTNKDNKSDKPNDKLISETAKSVMKEF
Km [1]: 33 µM | Km [2]: 12 µM | Km [3]: 5 mM
